In patent US7183387 (Genentech, dated 2007):

Tests used:
Experiment in all cases: ELISA, IgG:IgE hexamers on receptor-GST
[1] = target: T1, human FcγRIIB α subunit extracellular domain-6His-GST fusion (human, UniProt P31994 43-217)
T1 construct: not shown: glutathione S-transferase (GST)
T1 sequence: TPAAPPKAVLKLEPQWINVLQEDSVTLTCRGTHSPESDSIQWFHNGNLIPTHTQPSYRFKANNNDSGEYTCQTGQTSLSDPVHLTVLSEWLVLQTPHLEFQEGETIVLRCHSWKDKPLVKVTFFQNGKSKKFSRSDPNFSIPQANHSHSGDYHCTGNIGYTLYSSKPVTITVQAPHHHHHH

[2] = target: T2, human FcγRIIIA-F158 α subunit extracellular domain-6His-GST fusion (human, UniProt P08637 17-208)
T2 construct: also called FcγRIIIA-Phe158; not shown: glutathione S-transferase (GST)
T2 sequence (P08637 other isoform, or with tags, fused parts or gaps, form in doubt): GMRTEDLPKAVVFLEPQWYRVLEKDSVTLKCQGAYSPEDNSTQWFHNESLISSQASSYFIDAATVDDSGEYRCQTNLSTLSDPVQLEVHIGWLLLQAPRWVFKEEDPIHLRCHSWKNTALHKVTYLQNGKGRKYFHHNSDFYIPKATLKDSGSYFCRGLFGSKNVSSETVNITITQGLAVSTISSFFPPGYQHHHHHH

[3] = target: T3, human FcγRIIA-R131 α subunit extracellular domain-6His-GST fusion (human, UniProt P12318 34-217)
T3 construct: also called FcγRIIA-Arg131; not shown: glutathione S-transferase (GST)
T3 sequence: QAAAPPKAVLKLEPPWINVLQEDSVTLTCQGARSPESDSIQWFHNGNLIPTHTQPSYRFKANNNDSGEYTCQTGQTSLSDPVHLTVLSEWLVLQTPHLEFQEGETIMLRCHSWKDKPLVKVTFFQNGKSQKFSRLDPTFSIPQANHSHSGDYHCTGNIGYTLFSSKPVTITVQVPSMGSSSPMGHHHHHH

Binder | ratio to native IgG1 [1] | ratio to native IgG1 [2] | ratio to native IgG1 [3]
E27 IgG1 variant R292(309)Q (antibody, also called IG2 82) heavy: not shown light: DIQLTQSPSSLSASVGDRVTITCRASKPVDGEGDSYLNWYQQKPGKAPKLLIYAASYLESGVPSRFSGSGSGTDFTLTISSLQPEDFATYYCQQSHEDPYTFGQGTKVEIKRTVAAPSVFIFPPSDEQLKSGTASVVCLLNNFYPREAKVQWKVDNALQSGNSQESVTEQDSKDSTYSLSSTLTLSKADYEKHKVYACEVTHQGLSSPVTKSFNRGEC | 0.25 | 0.45 | 0.47
E27 IgG1 variant S298(317)T (antibody, also called IG2 71) heavy: not shown light: DIQLTQSPSSLSASVGDRVTITCRASKPVDGEGDSYLNWYQQKPGKAPKLLIYAASYLESGVPSRFSGSGSGTDFTLTISSLQPEDFATYYCQQSHEDPYTFGQGTKVEIKRTVAAPSVFIFPPSDEQLKSGTASVVCLLNNFYPREAKVQWKVDNALQSGNSQESVTEQDSKDSTYSLSSTLTLSKADYEKHKVYACEVTHQGLSSPVTKSFNRGEC | 0.27 | 0.73 | 0.29
E27 IgG1 variant S298(317)G (antibody, also called IG2 70) heavy: not shown light: DIQLTQSPSSLSASVGDRVTITCRASKPVDGEGDSYLNWYQQKPGKAPKLLIYAASYLESGVPSRFSGSGSGTDFTLTISSLQPEDFATYYCQQSHEDPYTFGQGTKVEIKRTVAAPSVFIFPPSDEQLKSGTASVVCLLNNFYPREAKVQWKVDNALQSGNSQESVTEQDSKDSTYSLSSTLTLSKADYEKHKVYACEVTHQGLSSPVTKSFNRGEC | 0.63 | 0.46 | 0.87
E27 IgG1 variant S298(317)V (antibody, also called IG2 218) heavy: not shown light: DIQLTQSPSSLSASVGDRVTITCRASKPVDGEGDSYLNWYQQKPGKAPKLLIYAASYLESGVPSRFSGSGSGTDFTLTISSLQPEDFATYYCQQSHEDPYTFGQGTKVEIKRTVAAPSVFIFPPSDEQLKSGTASVVCLLNNFYPREAKVQWKVDNALQSGNSQESVTEQDSKDSTYSLSSTLTLSKADYEKHKVYACEVTHQGLSSPVTKSFNRGEC | 0.17 | 0.33 | 0.11
E27 IgG1 variant R301(320)M (antibody) heavy: not shown light: DIQLTQSPSSLSASVGDRVTITCRASKPVDGEGDSYLNWYQQKPGKAPKLLIYAASYLESGVPSRFSGSGSGTDFTLTISSLQPEDFATYYCQQSHEDPYTFGQGTKVEIKRTVAAPSVFIFPPSDEQLKSGTASVVCLLNNFYPREAKVQWKVDNALQSGNSQESVTEQDSKDSTYSLSSTLTLSKADYEKHKVYACEVTHQGLSSPVTKSFNRGEC | 1.56 | 0.48 | 1.29
E27 IgG1 variant T256(269)G (antibody, also called IG2 176) heavy: not shown light: DIQLTQSPSSLSASVGDRVTITCRASKPVDGEGDSYLNWYQQKPGKAPKLLIYAASYLESGVPSRFSGSGSGTDFTLTISSLQPEDFATYYCQQSHEDPYTFGQGTKVEIKRTVAAPSVFIFPPSDEQLKSGTASVVCLLNNFYPREAKVQWKVDNALQSGNSQESVTEQDSKDSTYSLSSTLTLSKADYEKHKVYACEVTHQGLSSPVTKSFNRGEC | 1.06 | 0.96 | 1.1
E27 IgG1 variant T335(354)E (antibody, also called IG2 194) heavy: not shown light: DIQLTQSPSSLSASVGDRVTITCRASKPVDGEGDSYLNWYQQKPGKAPKLLIYAASYLESGVPSRFSGSGSGTDFTLTISSLQPEDFATYYCQQSHEDPYTFGQGTKVEIKRTVAAPSVFIFPPSDEQLKSGTASVVCLLNNFYPREAKVQWKVDNALQSGNSQESVTEQDSKDSTYSLSSTLTLSKADYEKHKVYACEVTHQGLSSPVTKSFNRGEC | 1.3 | 1.19 | 1.24
E27 IgG1 variant S324(343)E (antibody, also called IG2 216) heavy: not shown light: DIQLTQSPSSLSASVGDRVTITCRASKPVDGEGDSYLNWYQQKPGKAPKLLIYAASYLESGVPSRFSGSGSGTDFTLTISSLQPEDFATYYCQQSHEDPYTFGQGTKVEIKRTVAAPSVFIFPPSDEQLKSGTASVVCLLNNFYPREAKVQWKVDNALQSGNSQESVTEQDSKDSTYSLSSTLTLSKADYEKHKVYACEVTHQGLSSPVTKSFNRGEC | 0.73 | 0.81 | 0.82
E27 IgG1 variant S298(317)N (antibody, also called IG2 72) heavy: not shown light: DIQLTQSPSSLSASVGDRVTITCRASKPVDGEGDSYLNWYQQKPGKAPKLLIYAASYLESGVPSRFSGSGSGTDFTLTISSLQPEDFATYYCQQSHEDPYTFGQGTKVEIKRTVAAPSVFIFPPSDEQLKSGTASVVCLLNNFYPREAKVQWKVDNALQSGNSQESVTEQDSKDSTYSLSSTLTLSKADYEKHKVYACEVTHQGLSSPVTKSFNRGEC | 0.08 | 0.06 | 0.05
E27 IgG1 variant T335(354)K (antibody, also called IG2 195) heavy: not shown light: DIQLTQSPSSLSASVGDRVTITCRASKPVDGEGDSYLNWYQQKPGKAPKLLIYAASYLESGVPSRFSGSGSGTDFTLTISSLQPEDFATYYCQQSHEDPYTFGQGTKVEIKRTVAAPSVFIFPPSDEQLKSGTASVVCLLNNFYPREAKVQWKVDNALQSGNSQESVTEQDSKDSTYSLSSTLTLSKADYEKHKVYACEVTHQGLSSPVTKSFNRGEC | 1.14 | 1.3 | 1.19
E27 IgG1 variant S324(343)N (antibody, also called IG2 213) heavy: not shown light: DIQLTQSPSSLSASVGDRVTITCRASKPVDGEGDSYLNWYQQKPGKAPKLLIYAASYLESGVPSRFSGSGSGTDFTLTISSLQPEDFATYYCQQSHEDPYTFGQGTKVEIKRTVAAPSVFIFPPSDEQLKSGTASVVCLLNNFYPREAKVQWKVDNALQSGNSQESVTEQDSKDSTYSLSSTLTLSKADYEKHKVYACEVTHQGLSSPVTKSFNRGEC | 1.09 | 0.97 | 1.15
E27 IgG1 variant S324(343)K (antibody, also called IG2 215) heavy: not shown light: DIQLTQSPSSLSASVGDRVTITCRASKPVDGEGDSYLNWYQQKPGKAPKLLIYAASYLESGVPSRFSGSGSGTDFTLTISSLQPEDFATYYCQQSHEDPYTFGQGTKVEIKRTVAAPSVFIFPPSDEQLKSGTASVVCLLNNFYPREAKVQWKVDNALQSGNSQESVTEQDSKDSTYSLSSTLTLSKADYEKHKVYACEVTHQGLSSPVTKSFNRGEC | 0.37 | 0.77 | 0.66
E27 IgG1 variant T256(269)N (antibody) heavy: not shown light: DIQLTQSPSSLSASVGDRVTITCRASKPVDGEGDSYLNWYQQKPGKAPKLLIYAASYLESGVPSRFSGSGSGTDFTLTISSLQPEDFATYYCQQSHEDPYTFGQGTKVEIKRTVAAPSVFIFPPSDEQLKSGTASVVCLLNNFYPREAKVQWKVDNALQSGNSQESVTEQDSKDSTYSLSSTLTLSKADYEKHKVYACEVTHQGLSSPVTKSFNRGEC | 0.89 | 1.13 | 1.03
E27 IgG1 variant T335(354)Q (antibody, also called IG2 171) heavy: not shown light: DIQLTQSPSSLSASVGDRVTITCRASKPVDGEGDSYLNWYQQKPGKAPKLLIYAASYLESGVPSRFSGSGSGTDFTLTISSLQPEDFATYYCQQSHEDPYTFGQGTKVEIKRTVAAPSVFIFPPSDEQLKSGTASVVCLLNNFYPREAKVQWKVDNALQSGNSQESVTEQDSKDSTYSLSSTLTLSKADYEKHKVYACEVTHQGLSSPVTKSFNRGEC | 0.79 | 0.84 | 0.86
E27 IgG1 variant S298(317)L (antibody) heavy: not shown light: DIQLTQSPSSLSASVGDRVTITCRASKPVDGEGDSYLNWYQQKPGKAPKLLIYAASYLESGVPSRFSGSGSGTDFTLTISSLQPEDFATYYCQQSHEDPYTFGQGTKVEIKRTVAAPSVFIFPPSDEQLKSGTASVVCLLNNFYPREAKVQWKVDNALQSGNSQESVTEQDSKDSTYSLSSTLTLSKADYEKHKVYACEVTHQGLSSPVTKSFNRGEC | 1.42 | 0.34 | 1.14
E27 IgG1 variant S324(343)Q (antibody, also called IG2 214) heavy: not shown light: DIQLTQSPSSLSASVGDRVTITCRASKPVDGEGDSYLNWYQQKPGKAPKLLIYAASYLESGVPSRFSGSGSGTDFTLTISSLQPEDFATYYCQQSHEDPYTFGQGTKVEIKRTVAAPSVFIFPPSDEQLKSGTASVVCLLNNFYPREAKVQWKVDNALQSGNSQESVTEQDSKDSTYSLSSTLTLSKADYEKHKVYACEVTHQGLSSPVTKSFNRGEC | 0.83 | 0.78 | 0.82
